Key:
[1] = target: mCherry-EB3 full length (UniProt Q9UPY8)
[2] = target: mCherry-EB3 full length (UniProt Q9UPY8); assay: fluorescence correlation spectroscopy; 15 nM His-GFP-MTLS and 200 nM EB3 on dynamic MTs, no GUVs; peak intensity at passing MT tips against solution; 60 sites assumed in 6 dimer lengths, 1:1 EB3:MTLS assumed
[3] = target: mCherry-EB3 full length (UniProt Q9UPY8); assay: single-molecule TIRF microscopy (dwell times and binding events on microtubules); 0.12 nM His-GFP-MTLS, 50 ms/frame, 200 nM mCherry-EB3 as tracer of plus ends; dwell times fitted with an exponential; MT tip taken as 200 nm long
[4] = target: mCherry-EB3 full length (UniProt Q9UPY8); remark: listed apart in the source
[5] = target: dynamic microtubules (porcine brain tubulin) (porcine); assay: speed of membrane tube spreading on microtubules compared with a one-step model; His-GFP-MTLS bound to GUV membrane, no EB3; the attachment rate was chosen by comparing model curves for 8, 16 and 26 s^-1 with experimental data
Sequence of dynamic microtubules (porcine brain tubulin) (porcine) (P68363 whole entry, chain 1 of 2): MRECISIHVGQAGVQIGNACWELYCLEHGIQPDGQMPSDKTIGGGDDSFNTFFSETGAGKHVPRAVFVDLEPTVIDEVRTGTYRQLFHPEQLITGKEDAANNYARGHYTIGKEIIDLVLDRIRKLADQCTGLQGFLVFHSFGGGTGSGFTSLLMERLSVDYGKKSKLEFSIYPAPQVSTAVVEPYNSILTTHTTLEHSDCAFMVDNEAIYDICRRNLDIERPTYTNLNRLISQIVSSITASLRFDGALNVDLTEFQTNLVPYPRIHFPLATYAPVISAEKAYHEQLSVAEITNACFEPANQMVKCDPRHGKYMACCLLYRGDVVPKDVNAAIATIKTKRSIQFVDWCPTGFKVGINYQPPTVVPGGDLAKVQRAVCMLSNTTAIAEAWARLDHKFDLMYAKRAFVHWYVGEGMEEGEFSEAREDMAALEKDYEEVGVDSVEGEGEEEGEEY
Sequence of dynamic microtubules (porcine brain tubulin) (porcine) (P02554 whole entry, chain 2 of 2, further chain): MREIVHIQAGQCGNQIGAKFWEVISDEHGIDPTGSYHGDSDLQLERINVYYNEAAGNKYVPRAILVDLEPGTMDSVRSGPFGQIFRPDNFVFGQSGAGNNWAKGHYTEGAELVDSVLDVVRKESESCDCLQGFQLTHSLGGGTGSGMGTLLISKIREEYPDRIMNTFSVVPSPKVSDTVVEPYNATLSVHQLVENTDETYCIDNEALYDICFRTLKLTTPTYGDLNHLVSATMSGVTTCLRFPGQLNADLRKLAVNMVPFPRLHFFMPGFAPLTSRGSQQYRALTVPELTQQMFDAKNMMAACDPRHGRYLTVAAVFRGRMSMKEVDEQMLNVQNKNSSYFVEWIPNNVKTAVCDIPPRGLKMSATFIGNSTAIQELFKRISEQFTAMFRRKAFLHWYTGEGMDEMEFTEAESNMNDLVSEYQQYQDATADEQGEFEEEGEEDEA

Sequence of UniProt Q9UPY8 (Q9UPY8 whole entry): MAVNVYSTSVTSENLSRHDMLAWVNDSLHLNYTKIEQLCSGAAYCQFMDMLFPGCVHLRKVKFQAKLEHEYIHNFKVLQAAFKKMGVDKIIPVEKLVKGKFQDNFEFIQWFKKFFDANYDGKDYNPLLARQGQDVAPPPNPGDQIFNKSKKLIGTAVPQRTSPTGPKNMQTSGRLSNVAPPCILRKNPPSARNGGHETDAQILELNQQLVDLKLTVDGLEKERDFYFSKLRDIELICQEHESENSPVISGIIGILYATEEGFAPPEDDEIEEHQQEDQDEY

| Substance | duration of the first positive displacement of Bio-mCherry-MTLS-coated beads at growing MT tips with 100 nM EB3 (most events shorter than 1 s without EB3) [1] [s] | maximum probability of being bound to the EB3-bound MT tip [2] | fold association rate at MT tips (with 200 nM mCherry-EB3) over the on-rate at the MT shaft [3] [fold] | tubulation of GUVs on dynamic MTs at 200 nM EB3 and 15 nM His-GFP-MTLS [4] [%] | k on-m (estimated attachment rate of membrane-bound His-GFP-MTLS to the MT lattice, no EB3) [5] [s⁻¹] |
| --- | --- | --- | --- | --- | --- |
| Bio-mCherry-MTLS (from UniProt Q03001 7528-7570) | 15 | – | – | – | – |
| His-GFP-MTLS (from UniProt Q03001 7528-7570) | – | 0.46 | 2.5 | 90 | 16 |
